The supplement of paper PMC9732359
± gives the uncertainty stated by the source.

Experiment: protein stability index of a GFP-peptide fusion (yeast GPS) (PSI 1-4); higher = more stable; sorted into four equal gates, so the index is relative within each strain
Summary of the method: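 Plasmids in a pooled yeast library fused tiled 17-residue yeast protein peptides downstream of GFP and also expressed Cherry. Mid-log cultures grown without leucine were sorted into four equal gates by GFP/Cherry fluorescence ratio. Each gate's plasmids were PCR-amplified and Illumina-sequenced, and reads were matched to strains by barcodes. The protein stability index is derived by multiplying each gate's read frequency by its gate number and summing the results.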

Sequence | protein stability index (doa10∆) | protein stability index (pdr5∆) | protein stability index (san1∆) | protein stability index (ubr1∆)
SIDNDFSEEKAEEFDFN [YAR002W/NUP60] | 3.19 ± 0.14 | 3.02 ± 0.11 | 3.17 ± 0.092 | 3.12 ± 0.1
SIIKAKLPLLNESLIPL [YML103C/NUP188] | 1.68 ± 0.06 | 2.18 ± 0.067 | 1.84 ± 0.082 | 1.99 ± 0.05
SILSFVDKELLEPGCSV [RPT2] | 2.75 ± 0.077 | 2.86 ± 0.071 | 2.3 ± 0.078 | 3.01 ± 0.066
SINATALAFGYVKSLHK [SIN4] | 3.51 ± 0.21 | 2.92 ± 0.12 | 3.1 ± 0.22 | 3.08 ± 0.08
SIPMGGQSINDSLKKLL [ARP9] | 2.39 ± 0.06 | 2.46 ± 0.063 | 2.47 ± 0.08 | 2.61 ± 0.056
SISTYKDILNLASEVGD [ECM29] | 2.63 ± 0.07 | 2.65 ± 0.076 | 2.71 ± 0.071 | 2.77 ± 0.054
SITTGNDNENIVNNDLP [MED2] | 2.79 ± 0.051 | 2.78 ± 0.052 | 2.57 ± 0.054 | 2.87 ± 0.05
SKCLNLISDSNINNSSV [SWI3] | 1.94 ± 0.072 | 1.91 ± 0.065 | 1.6 ± 0.11 | 2.41 ± 0.039
SKFHFSWNESEDTLSGY [PRP28] | 3.07 ± 0.12 | 3.19 ± 0.12 | 3.2 ± 0.075 | 3.47 ± 0.058
SKIQEIESIRSCKDSQL [YIL149C/MLP2] | 2.29 ± 0.044 | 2.92 ± 0.054 | 2.77 ± 0.041 | 2.79 ± 0.047
SKKLDVTVEQLRSIYHQ [NSL1] | 2.42 ± 0.067 | 2.25 ± 0.06 | 1.85 ± 0.055 | 2.08 ± 0.057
SKKRKLVADGVFYAELN [RPS3] | 2.82 ± 0.24 | 1.84 ± 0.19 | 1.55 ± 0.13 | 
SKKVTSGVPRLKEILNV [RPO21] | 1.81 ± 0.1 | 2.06 ± 0.12 | 1.55 ± 0.23 | 1.1 ± 0.083
SKLLQTTLKLSPSPILL [NUT1] | 2.4 ± 0.045 | 1.47 ± 0.051 | 1.72 ± 0.091 | 1.5 ± 0.046
SKNCYLSEATESDLYKL [RPB2] | 3.02 ± 0.12 | 3.22 ± 0.14 | 2.9 ± 0.17 | 2.75 ± 0.093
SKNFNVILASSLNEVGT [YML103C/NUP188] | 2.44 ± 0.045 | 2.42 ± 0.043 | 2.56 ± 0.051 | 2.39 ± 0.036
SKNLGEINTALNTLLVT [SWI1] | 1.23 ± 0.077 | 1.79 ± 0.054 | 1.57 ± 0.11 | 1.46 ± 0.066
SKNRIIVEADEKKGIVQ [RET1] | 1.21 ± 0.14 | 1.47 ± 0.061 |  | 1.59 ± 0.077
SKNSPAEDDVIIPQDIL [YJR042W/NUP85] | 3.19 ± 0.13 | 2.96 ± 0.12 | 3.07 ± 0.12 | 3.36 ± 0.19
SKQIFTHPKDTFYITRE [ARP9] | 3.11 ± 0.065 | 3.09 ± 0.056 | 2.93 ± 0.038 | 3.23 ± 0.039
SKRGNDKKHFNNKNKRV [RPC53] | 3.17 ± 0.14 | 2.7 ± 0.11 | 3.09 ± 0.14 | 2.05 ± 0.09
SKSESDSQIVTPGELVT [RRP4] | 3.07 ± 0.11 | 3.17 ± 0.066 | 2.88 ± 0.077 | 2.83 ± 0.066
SKSTSMKLSMPPEVTSS [POP1] | 2.4 ± 0.053 | 2.59 ± 0.062 | 2.44 ± 0.057 | 2.54 ± 0.035
SKSYTPRKLVLSSGENR [SMC4] | 1.65 ± 0.03 | 1.82 ± 0.041 | 1.93 ± 0.056 | 1.7 ± 0.037
SKTENVRRLEAQRNALN [RPT6] | 2.65 ± 0.17 | 2.91 ± 0.18 |  | 2.88 ± 0.074
SKTGIIAYSDSQSSNAN [SIN4] | 2.63 ± 0.043 | 2.6 ± 0.043 | 2.68 ± 0.044 | 2.53 ± 0.058
SKTGSVDTLHNKEGTLE [SSN2] | 3.46 ± 0.24 | 3.14 ± 0.16 | 3.19 ± 0.083 | 3.4 ± 0.14
